The values below come from patent US20170020994.

The test system of data set [1] is RA-TALE_ICP4 (ICP4-TALE-VP16) (synthetic construct). Put plainly: cell_activity. The settings on record: Fluc reporter with ICP4 promoter, 293T.
The subject of data set [2] is RA-TALE_ICP0 (ICP0-TALE-VP16) (synthetic construct). The experiment in a line: cell_activity. The following applies: Fluc reporter with ICP0 promoter, 293T.

“GGCAGATGGCGCGGATG (double strand) [ICP4 promoter TALE site]” displayed an activity (fold activation) in data set [1] of 60. Sequence “GGGACGCGCGGCCAT (double strand) [ICP0 promoter TALE site]” registered an activity (fold activation) in data set [2] of 20.
